Like-named read-outs stand apart in the source and are kept apart here.
Legend:
amyloid peptide Aβ4-42 [1] = target: T1, amyloid peptide Aβ4-42 (UniProt P05067 675-713); assay: ELISA, plate coated with Anaspec Aβ4-42, antibody titrated after incubation in PBS or in mouse, human or cynomolgus serum, blank-subtracted OD650
T1 construct: domain: Aβ4-42; Bought synthetic peptide; also called Anaspec Aβ4-42

amyloid peptide AβpE3-42 [2] = target: T2, amyloid peptide AβpE3-42 (UniProt P05067 674-713, N-terminal pyroglutamate (pE) at Aβ position 3); assay: ELISA, plate coated with AβpE3-42 (PSL), antibody titrated, blank-subtracted OD650
T2 construct: domain: AβpE3-42; Bought synthetic peptide; also called AβpGlu3-42; Aβ(Glp3)3-42
Protocol: (§1) Each well of a […] MaxiSorp plate (Nunc) was coated with 50 μL aliquots of 200 ng/mL of 1-42, pE3-42 or 4-42 amyloid peptides in PBS and incubated overnight at 4° C. The wells were washed 3× with PBS-T (0.1% Tween20) and blocked with 150 μL of 5% milk in PBS/0.05% Tween20 per well. The wells were then incubated at RT with shaking for 1 hour and washed 3× with PBS-T (0.1% Tween20). 50 μl of primary antibody serially diluted in 1% milk PBS/0.05% Tween20 was added to the wells of the assay plate using a 3-fold dilution series starting from ˜100 μg/mL. The incubation and washing step was then repeated. Anti-human kappa chain HRP (Sigma A7164-1 mL) was diluted 4,000-fold in PBS/1% milk/0.05% Tween20 and 50 μl added to each well. The incubation and washing step was repeated and then 75 μL of K-Blue substrate (Neogen) was added per well and incubated for 5-10 minutes at RT. The reaction was stopped by adding 50 μl of RED STOP solution (Neogen) to each well and the optical density was read at 650 nm.

amyloid peptide AβpE3-42 [3] = target: T2, amyloid peptide AβpE3-42; assay: ELISA, plate coated with AβpE3-42, antibody titrated, blank-subtracted OD650
Protocol: as §1
Therefore, F67Y, Y68N, I39W and an additional variant that combined F67Y and Y68N were generated (Table 2) and binding to Aβ1-42, AβpE3-42 and 4-42 was investigated. […] Five additional variants of the heavy chain were generated with the following mutations, S53M, S53H, R100H, L103R and L103H (Table 4b). In addition, five variants of the light chain were also generated RKF (N92W), RKG (N92Y), RKH (N92H), RKI (L94R) and RIC (L94H).

amyloid peptide Aβ4-42 [4] = target: T1, amyloid peptide Aβ4-42; assay: ELISA, plate coated with Anaspec Aβ4-42, antibody titrated after incubation in PBS or in mouse, human or cynomolgus serum, blank-subtracted OD650 [continued]
amyloid peptide AβpE3-42 [5] = target: T2, amyloid peptide AβpE3-42; assay: assay not given; binding to Aβ1-42, AβpE3-42 and 4-42 was investigated
amyloid peptide Aβ4-42 [6] = target: T1, amyloid peptide Aβ4-42; assay: as above
amyloid peptide AβpE3-42 [7] = target: T2, amyloid peptide AβpE3-42; assay: ELISA, plate coated with AβpE3-42, antibody titrated, A650nm
Protocol: as §1

amyloid peptide AβpE3-42 [8] = target: T2, amyloid peptide AβpE3-42; assay: as above; remark: listed apart in the source
Protocol: as §1

amyloid peptide Aβ4-42 [9] = target: T1, amyloid peptide Aβ4-42; assay: SPR, Biacore T200; SPR (Biacore T200), apparent KD comparable to the mouse antibody
amyloid peptide AβpE3-42 [10] = target: T2, amyloid peptide AβpE3-42; assay: ELISA, plate coated with AβpE3-42 (target by legend paragraph 24), antibody titrated, A650nm
Protocol: as §1

amyloid peptide AβpE3-42 [11] = target: T2, amyloid peptide AβpE3-42; assay: ELISA, plate coated with AβpE3-42, antibody titrated, signal as % Max
Protocol: as §1

amyloid peptide AβpE3-42 [12] = target: T2, amyloid peptide AβpE3-42; assay: ELISA, plate coated with AβpE3-42 from PSL, antibody titrated, A650nm
Protocol: as §1

amyloid peptide Aβ1-42 = target: T3, amyloid peptide Aβ1-42 (UniProt P05067 672-713); assay: ELISA, plate coated with Aβ1-42 (target by legend paragraph 23), antibody titrated, signal as % Max; the value lies beyond the highest concentration shown
T3 construct: domain: Aβ1-42; Bought synthetic peptide; also called amyloid full length peptide Aβ1-42
T3 sequence (P05067 672-713 limits assumed): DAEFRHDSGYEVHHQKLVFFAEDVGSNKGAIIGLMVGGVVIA

T1 sequence (P05067 675-713 limits assumed): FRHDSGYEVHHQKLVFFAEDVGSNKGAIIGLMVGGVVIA
T2 sequence (P05067 674-713 limits assumed): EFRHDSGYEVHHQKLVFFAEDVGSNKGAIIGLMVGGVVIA

B1: humanized NT4X-167 RHS/RKA (antibody, mouse IgG1, V domains shown)
VH: QVQLQESGPGLVKPSETLSLTCTVSGFSLSSYGIHWIRQPPGKGLEWIGVMWSGGITDFYAAFISRVTISRDTSKNQVSLKLSSVTAADTAVYYCARGSRYALDYWGQGTLVTVSS
VL: DIQMTQSPSSLSASVGDRVTITCRASQDISNYLNWYQQKPGKAPKLLIYYTSRLHSGVPSRFSGSGSGTDFTLTISSLQPEDFATYYCQQGNTLPPTFGGGTKLEIK
notes: also called SA; RHS/KA
B1: binds (amyloid peptide Aβ4-42 [1]); binds (amyloid peptide AβpE3-42 [2]).

B2: humanized NT4X-167 RHS7/RKA (antibody, mouse IgG1, V domains shown)
VH: QVQLQESGPGLVKPSETLSLTCTVSGFSLSSYGIHWIRQPPGKGLEWIGVMWSGGITNFYPSLKSRVTISRDTSKNQVSLKLSSVTAADTAVYYCARGSRYALDYWGQGTLVTVSS
VL: DIQMTQSPSSLSASVGDRVTITCRASQDISNYLNWYQQKPGKAPKLLIYYTSRLHSGVPSRFSGSGSGTDFTLTISSLQPEDFATYYCQQGNTLPPTFGGGTKLEIK
notes: also called S7A
B2: binds (amyloid peptide AβpE3-42 [3]); binds (amyloid peptide Aβ4-42 [4]).

B3: humanized NT4X-167 RHS71/RKA (antibody, V domains shown)
VH: QVQLQESGPGLVKPSETLSLTCTVSGFSLSSYGIHWIRQPPGKGLEWIGVMWSGGITNYYPSLKSRVTISRDTSKNQVSLKLSSVTAADTAVYYCARGSRYALDYWGQGTLVTVSS
VL: DIQMTQSPSSLSASVGDRVTITCRASQDISNYLNWYQQKPGKAPKLLIYYTSRLHSGVPSRFSGSGSGTDFTLTISSLQPEDFATYYCQQGNTLPPTFGGGTKLEIK
notes: also called RHS71 (F67Y) with RKA
B3: binds (amyloid peptide AβpE3-42 [5]); binds (amyloid peptide Aβ4-42 [6]).

B4: chimeric NT4X-167 antibody (antibody, V domains shown)
VH: QVQLKQSGPGLVQPSQSLSITCTVSGFSLTSYGIHWVRQSPGKGLEWLGVMWSGGITDFYAAFISRLSISRDISKSQVFFKMNSLQADDTAIYYCARGSRYALDYWGQGTSVSVSS
VL: DIQMTQTTSSLSASLGDRVTISCRASQDISNYLNWYQQKPDGTVKLLIYYTSRLHSGVPSRFSGSGSGTDYSLTISNLEQEDIATYFCQQGNTLPPTFGGGTKLEIK
notes: also called chimeric positive control antibody
B4 was tested, and the “EC50 (read off the curve)” value (amyloid peptide AβpE3-42 [7]) was about 0.07 µg/mL, the “EC50 (read off the curve)” value (amyloid peptide AβpE3-42 [8]) was about 0.07 µg/mL and the binding result (amyloid peptide Aβ4-42 [9]) was “binds”. The EC50 (amyloid peptide AβpE3-42 [10]) was 0.227 µg/mL, the EC50 (amyloid peptide AβpE3-42 [11]) was 0.118 µg/mL and the EC50 (amyloid peptide AβpE3-42 [12]) was 47.1 nM. For the same binder, the EC50 (amyloid peptide Aβ1-42) was 214 µg/mL.

Reference: US20210347867A1 (GEORG AUGUST UNIVERSIT T G TTINGEN STIFTUNG FFENTLICHEN …, published 2021)
